Source: US20260000780A1, “B-LYMPHOCYTE SPECIFIC AMATOXIN ANTIBODY CONJUGATES” (priority 2021, published 2026)

Assays:
[1] = tested on: Nalm-6 cell line (CD37-negative); test: FACS binding / antibodies bound per cell (BD Quantibrite PE), Nalm-6; design: species or system human
Method: (§1) Binding of the anti-CD37 monoclonal antibody chHH1-HDP-LALA-D265C to the CD37-positive B-cell leukemia (B-CLL) cell lines MEC-1 and MEC-2 as well as to the human Burkitt lymphoma cell lines Raji and Ramos and to the human B-cell precursor leukemia cell line Nalm-6, which is known to be CD37-negative, were tested by fluorescence-activated cell sorting (FACS) analysis.
(§2) In order to estimate antibodies bound per cell (ABC) by flow cytometry, BD Quantibrite PE tubes (Becton Dickinson) were used, which were run at the same instrument settings as the assay, so that the FL2 axis can be converted into the number of PE molecules bound per cell. By using known ratios of PE to antibodies, PE molecules per cell can then be converted to the number of antibodies per cell (Iyer et al. 1997).

[2] = tested on: MEC-2 cell line (CD37-positive); test: FACS binding / antibodies bound per cell (BD Quantibrite PE), MEC-2
Method: as §1, §2

[3] = tested on: MEC-1 cell line (CD37-positive); test: FACS binding / antibodies bound per cell (BD Quantibrite PE), MEC-1
Method: as §1, §2

[4] = tested on: Ramos cell line (CD37-positive); test: FACS binding / antibodies bound per cell (BD Quantibrite PE), Ramos; design: species or system human
Method: as §1, §2

CD37 = molecular target: T1, CD37 (Homo sapiens, UniProt P11049); test: Biacore binding assay (surface-plasmon resonance); settings: CD37 construct Ala 113 to Asn 240 with Fc fusion tag, 31.25 nM to 500 nM
T1 construct: A CD37 construct comprising amino acids Ala 113 to Asn 240, expressed in HEK293 cells; Fc fusion tag (Thr 106 to Lys 330); host or cells: HEK293
T1 sequence (P11049 113-240): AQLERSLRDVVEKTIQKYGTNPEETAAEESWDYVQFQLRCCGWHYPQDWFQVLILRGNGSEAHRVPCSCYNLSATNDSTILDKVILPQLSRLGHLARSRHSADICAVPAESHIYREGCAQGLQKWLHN
Method: Binding of the monoclonal antibody chHH1-HDP-LALA-D265C to CD37 was confirmed by surface-plasmon resonance (Biacore) interaction analysis. 0.1 μM chHH1-HDP-LALA-D265C was captured using anti-Fab capture (FAB2G) biosensors. Alternatively, biotinylated monoclonal antibody chHH1-HDP-LALA-D265C was captured by streptavidin (SA) sensors. A CD37 construct comprising amino acids Ala 113 to Asn 240, expressed in HEK293 cells with an Fc fusion tag moiety (Thr 106 to Lys 330), was added to the sensor at concentrations of 31.25 nM to 500 nM (1:2 dilution steps), and binding of the CD37 construct was assessed.

cynomolgus CD37 = test: Cross reactivity with cynomolgus PBMCs by flow cytometry; assay type: binding
Method: Cross reactivity of the anti-CD37 chHH1-HDP-LALA-D265C with cynomolgus peripheral blood mononuclear cells (PBMCs) was assessed by flow cytometry. As control, human PBMCs were stained using the same set of antibodies. FACS analysis was done according to a standard protocol. In brief: PBMCs were resuspend in 300 μL staining medium (3.3×10^5 cells/50 μl staining medium). 50 μl cell suspension for each sample (=3.3×10^5 cells per sample) were piptted into one well of an U-well plate. 50 μl of pre-diluted isotype and antibody solutions were added to the samples in each well and incubated for 30 min on ice, followed by the addition of 100 μl ice-cold PBS and centrifugation at 4° C., 300 g, 6 min. The resulting supernatant was discarded and cells were washed with 200 μl ice-cold PBS, pH 7.4 followed by centrifugation at 4° C., 300 g, 6 min. The wash step was repeated once. The supernatant was discarded and cells resuspended in 100 μl of the secondary antibody solution. For the untreated sample (control) 100 μl staining medium were used. Cells were incubated for 30 min on ice protected from light. 100 μl ice-cold PBS were added and cells were centrifuge at 4° C., 300 g, 6 min. The supernatant was discarded and cells were washed twice with 200 μl ice-cold PBS, pH 7.4 and centrifuged at 4° C., 300 g, 6 min. […]

[5] = tested on: Raji cell line (CD37-positive); test: FACS binding / antibodies bound per cell (BD Quantibrite PE), Raji; design: species or system human
Method: as §1, §2

Raji-Luc tumor xenograft = test: Disseminated Raji-Luc tumor xenograft model; assay type: in vivo, CB17 Scid mice; settings: 3.75 mg/kg (unconjugated antibody); day 89 after treatment
Method: Cytotoxic efficacy studies in vivo were performed using various anti-CD37 antibody amatoxin conjugates in a disseminated Raji-Luc tumor xenograft model over 89 days of treatment.
Tumor cell inoculation was done on day-3 by i.v. injection of 2.5×10^6 Raji-Luc cells in CB17 Scid mice. Treatment was performed on day 0 by single dose i.v. injection at maximum tolerable dose (MTD) of 1/16 and MTD of 1/64 doses of cynomolgus MTD, respectively. Readout of the study was body weight, bioluminescence and survival. Results are shown in FIG. 10 (body weight), FIG. 11 (bioluminescence) and FIG. 12 (survival) at day 89 after treatment. All groups treated with conjugate gained body weight as normal, in contrast to the control group.

B1: chHH1-HDP-LALA-D265C: Unconjugated anti-CD37 antibody, heavy chain SEQ ID No. 11 (234Ala, 235Ala, 265Cys), light chain SEQ ID No. 12 (antibody)
heavy: EIQLQQSGPELVKPGASVKVSCKASGYSFTDYNMYWVKQSHGKSLEWIGYIDPYNGDTTYNQKFKGKATLTVDKSSSTAFIHLNSLTSEDSAVYYCARSPYGHYAMDYWGQGTSVTVSSASTKGPSVFPLAPSSKSTSGGTAALGCLVKDYFPEPVTVSWNSGALTSGVHTFPAVLQSSGLYSLSSVVTVPSSSLGTQTYICNVNHKPSNTKVDKKVEPKSCDKTHTCPPCPAPEAAGGPSVFLFPPKPKDTLMISRTPEVTCVVVCVSHEDPEVKFNWYVDGVEVHNAKTKPREEQYNSTYRVVSVLTVLHQDWLNGKEYKCKVSNKALPAPIEKTISKAKGQPREPQVYTLPPSREEMTKNQVSLTCLVKGFYPSDIAVEWESNGQPENNYKTTPPVLDSDGSFFLYSKLTVDKSRWQQGNVFSCSVMHEALHNHYTQKSLSLSPGK
light: DIVMTQSHKLLSTSVGDRVSITCKASQDVSTAVDWYQQKPGQSPKLLINWASTRHTGVPDRFTGSGSGTDYTLTISSMQAEDLALYYCRQHYSTPFTFGSGTKLEIKRTVAAPSVFIFPPSDEQLKSGTASVVCLLNNFYPREAKVQWKVDNALQSGNSQESVTEQDSKDSTYSLSSTLTLSKADYEKHKVYACEVTHQGLSSPVTKSFNRGEC
modifications: Heavy chain of chHH1-HDP-LALA-D265C comprising amino acid substitutions L235A, L235A and D265C; Light chain of chHH1-HDP, chHH1-HDP-265C, chHH1-HDP-LALA-D265C, respectively
- binding by FACS analysis ([1]; Nalm-6 (CD37-negative)): No binding was detected
- antibodies bound per cell (ABC) value ([1]; Nalm-6, flow cytometry): 42
- binding by FACS analysis [2]: bind strongly
- antibodies bound per cell (ABC) value ([2]; flow cytometry): 137,200
- binding by FACS analysis [3]: bind strongly
- antibodies bound per cell (ABC) value ([3]; flow cytometry): 33,004
- binding by FACS analysis [4]: bind strongly
- antibodies bound per cell (ABC) value ([4]; flow cytometry): 31,500
- binding to CD37 by surface-plasmon resonance (Biacore) (CD37): confirmed
- specific binding to cynomolgus CD37 (cynomolgus CD37): does not exhibit specific binding
- binding by FACS analysis [5]: bind strongly
- antibodies bound per cell (ABC) value ([5]; flow cytometry): 32,500
- Alive animals (Raji-Luc tumor xenograft): 0/10
